# Assay results published in patent publication US20150011730A1 (UNIVERSITY OF SOUTH CAROLINA, published 2015).
# Like-named read-outs stand apart in the source and are kept apart here. Non-standard residues stand in square brackets, D forms with d. No end group written: not given here. *: point of attachment. X1 = 1‑(3,5-dichlorophenyl)‑5‑methyl‑1H‑1,2,4‑triazole‑3‑carbonyl, Cc1nc(C(=O)*)nn1-c1cc(Cl)cc(Cl)c1; Pyrazole N‑cap (R1 OCH3, R2 H, R3 H, R4 CH3, W N, X N, Y C, Z C) = not defined here; Pyrazole N‑cap (R1 Cl, R2 H, R3 Cl, R4 CH3, W N, X N, Y C, Z C) = not defined here; Pyrazole N‑cap (R1 Cl, R2 H, R3 H, R4 CH3, W N, X N, Y C, Z C) = not defined here; Pyrazole N‑cap (R1 F, R2 H, R3 H, R4 CH3, W N, X N, Y C, Z C) = not defined here; Pyrazole N‑cap (R1 H, R2 H, R3 H, R4 CH3, W N, X N, Y C, Z C) = not defined here; benzoic acid Scaffold III (R1 H, R2 CHEM-US-00025 C6H13NO) = not defined here; benzoic acid Scaffold III (R1 H, R2 CHEM-US-00026 C5H12N2) = not defined here; 3‑phenoxybenzylamide = c1ccc(Oc2cccc(CN*)c2)cc1; Ala(2-furyl) = N[C@@H](Cc1ccco1)C(=O)O; Cha = N[C@@H](CC1CCCCC1)C(=O)O; β3hL = CC(C)C[C@H](N)CC(=O)O
# Key:
# [1] = molecular target: T1, CDK2/Cyclin A2, full-length recombinant, N-terminal GST tag on both proteins (UniProt P24941 1-298; P20248 1-432); experiment: cell-based or functional assay
# [2] = molecular target: T2, CDK4/Cyclin D1, full-length recombinant, N-terminal GST tag on both proteins (UniProt P11802 2-303; P24385 1-295); experiment: cell-based or functional assay
# T2 sequence (P11802 2-303, chain 1 of 2): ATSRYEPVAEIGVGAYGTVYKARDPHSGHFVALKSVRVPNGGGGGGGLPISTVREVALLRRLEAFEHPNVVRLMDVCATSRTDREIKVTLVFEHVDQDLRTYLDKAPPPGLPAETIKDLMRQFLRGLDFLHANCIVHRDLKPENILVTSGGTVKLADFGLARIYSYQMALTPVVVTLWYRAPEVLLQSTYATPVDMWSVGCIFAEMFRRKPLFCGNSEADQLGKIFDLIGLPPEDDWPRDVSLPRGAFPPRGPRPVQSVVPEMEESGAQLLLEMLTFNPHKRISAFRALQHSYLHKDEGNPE
# T2 sequence (P24385 whole entry, chain 2 of 2): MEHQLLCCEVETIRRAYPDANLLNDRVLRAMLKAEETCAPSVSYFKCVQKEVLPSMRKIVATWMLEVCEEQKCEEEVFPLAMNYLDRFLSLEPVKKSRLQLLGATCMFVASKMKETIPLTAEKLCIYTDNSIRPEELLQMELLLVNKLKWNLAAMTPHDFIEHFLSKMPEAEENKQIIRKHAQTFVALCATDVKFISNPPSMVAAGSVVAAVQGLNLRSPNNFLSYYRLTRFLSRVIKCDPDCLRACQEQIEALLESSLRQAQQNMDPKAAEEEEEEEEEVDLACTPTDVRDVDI
# [3] = molecular target: T3, CDK4/cyclin D1 (as used in the binding assay) (UniProt P11802 1-303; P24385 1-295)
# T3 construct: kept apart from the GST-tagged kinase-assay complex m2; also called CDK4/D1
# T3 sequence (P11802 whole entry, chain 1 of 2): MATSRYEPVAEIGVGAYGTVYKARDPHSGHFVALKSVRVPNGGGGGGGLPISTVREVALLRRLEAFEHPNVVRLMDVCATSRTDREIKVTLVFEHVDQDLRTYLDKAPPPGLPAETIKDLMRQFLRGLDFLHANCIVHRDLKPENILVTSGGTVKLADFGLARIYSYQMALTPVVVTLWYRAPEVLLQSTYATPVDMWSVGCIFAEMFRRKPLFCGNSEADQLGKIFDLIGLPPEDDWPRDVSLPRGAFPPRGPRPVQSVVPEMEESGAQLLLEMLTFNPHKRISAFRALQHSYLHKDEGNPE
# T3 sequence (P24385 whole entry, chain 2 of 2): as the sequence (P24385 whole entry, chain 2 of 2) above
# [4] = molecular target: T4, CDK2/cyclin A (as used in the binding assay) (UniProt P24941 1-298; P20248 1-432); experiment: FP binding assay
# [5] = molecular target: T3, CDK4/cyclin D1 (as used in the binding …); experiment: FP binding assay
# [6] = molecular target: T4, CDK2/cyclin A (as used in the binding …)
# [7] = molecular target: T3, CDK4/cyclin D1 (as used in the binding …); remark: listed apart in the source
# [8] = molecular target: T4, CDK2/cyclin A (as used in the binding …); experiment: binding assay
# [9] = molecular target: T1, CDK2/Cyclin A2, full-length …; experiment: cell-based or functional assay; remark: listed apart in the source
# [10] = molecular target: CDK2/E (UniProt P24941 1-298; P24864 1-410); experiment: cell-based or functional assay
# [11] = molecular target: T2, CDK4/Cyclin D1, full-length …; experiment: cell-based or functional assay; remark: listed apart in the source
binder,measurement,setting,value
HAKRRLI[2‑thienylalanine]-NH2 [HAKRRLIX2],"IC50, kinase assay",[1],3.6 µM
SAKRALFGM-NH2,"IC50, kinase assay",[2],68 µM
HAKRRLIA (HELM PEPTIDE1{H.A.K.R.R.L.I.[O=C([C@H](CC1CCC1)N[*:1])[*:2]].[am]}$$$$V2.0; N-terminus assumed; SMILES CC[C@H](C)[C@H](NC(=O)[C@H](CC(C)C)NC(=O)[C@H](CCCNC(=N)N)NC(=O)[C@H](CCCNC(=N)N)NC(=O)[C@H](CCCCN)NC(=O)[C@H](C)NC(=O)[C@@H](N)Cc1c[nH]cn1)C(=O)N[C@@H](CC1CCC1)C(N)=O) [HAKRRLIX4],"IC50, kinase assay",[1],25 µM
"{benzoic acid Scaffold III (R1 H, R2 CHEM-US-00026 C5H12N2)}-RLIF (reading uncertain; also: cap structure given only by scaffold parameters) [SCCP 5850 (benzoic acid N-cap-RLIF)]",fold enhancement of activity vs unsubstituted benzoic acid,[3],9 fold
{2‑(3-fluorophenyl)‑1H‑imidazole‑4‑carbonyl}-RLIF (also called 2-(3-fluorophenyl)-1H-imidazole-4-carboxamide) [SCCP 5852 (Imidazole N-cap ligated to RLIF)],IC50,[4],34.3 µM
same,IC50,[5],67 µM
"HAKRRLI[Cha]-NH2 (not fully specified, also called HAKRRLIX6; HAKRRLI{CHA}) [HAKRRLIR6]","IC50, kinase assay",[1],58 µM
same,IC50,[6],0.25 µM
same,IC50,[7],0.26 µM
"X1-RLIF (also called SCCP 5773; 3,5-dichlorophenyl triazole) [1-(3,5-dichlorophenyl)-5-methyl-1H-1,2,4-triazole-3-carbonyl-RLIF]",IC50,[4],4 µM
same,IC50,[5],27 µM
same,IC50,[8],12 µM
"{Pyrazole N‑cap (R1 F, R2 H, R3 H, R4 CH3, W N, X N, Y C, Z C)}-RLIF (reading uncertain; also: cap structure given only by scaffold parameters) [SCCP 5771 (Pyrazole N-cap ligated to RLIF)]",IC50,[4],29.6 µM
same,IC50,[5],69.6 µM
"SAKRRLXG (HELM PEPTIDE1{S.A.K.R.R.L.[O=C([C@H](Cc1ccsc1)N[*:1])[*:2]].G}$$$$V2.0; N-terminus assumed; SMILES CC(C)C[C@H](NC(=O)[C@H](CCCNC(=N)N)NC(=O)[C@H](CCCNC(=N)N)NC(=O)[C@H](CCCCN)NC(=O)[C@H](C)NC(=O)[C@@H](N)CO)C(=O)N[C@@H](Cc1ccsc1)C(=O)NCC(=O)O, C-terminal free acid (-OH); also called SCCP 5814) [SAKRRL3TA G-OH]",IC50,[6],0.43 µM
"{Triazole N‑cap, 4‑chlorophenyl triazole (R1 H, R2 Cl, R3 H, R4 CH3, W N, X N, Y N, Z C)}-RLIF (also: cap structure given only by scaffold parameters, also called 4-chlorophenyl triazole; 4-chloro phenyl triazole) [SCCP 5774 (Triazole N-cap ligated to RLIF)]",IC50,[4],11.5 µM
same,IC50,[5],11.3 µM
same,IC50,[8],25 µM
"XRLIF (Cit at position 1 = citrulline; C-terminal amide, also called SCCP 5812) [CitRLIF]","IC50, kinase assay",[2],179 µM
same,IC50,[7],72.3 µM
"{Pyrazole N‑cap (R1 Cl, R2 H, R3 Cl, R4 CH3, W N, X N, Y C, Z C)}-RLIF (reading uncertain; also: cap structure given only by scaffold parameters) [SCCP 5763 (Pyrazole N-cap ligated to RLIF)]",IC50,[4],21.8 µM
HAKRRLIA (HELM PEPTIDE1{H.A.K.R.R.L.I.[O=C([C@H](Cc1cccnc1)N[*:1])[*:2]].[am]}$$$$V2.0; N-terminus assumed; SMILES CC[C@H](C)[C@H](NC(=O)[C@H](CC(C)C)NC(=O)[C@H](CCCNC(=N)N)NC(=O)[C@H](CCCNC(=N)N)NC(=O)[C@H](CCCCN)NC(=O)[C@H](C)NC(=O)[C@@H](N)Cc1c[nH]cn1)C(=O)N[C@@H](Cc1cccnc1)C(N)=O) [HAKRRLIX7],"IC50, kinase assay",[1],29 µM
"RXLIF (Cit at position 2 = citrulline; C-terminal amide, also called SCCP 5831) [RCitLIF]",IC50,[7],46.5 µM
HAKTRLIF-NH2,"IC50, kinase assay",[2],25 µM
same,Potency ratio vs native HAKRRLIF,[2],16.7 ratio
same,"IC50, kinase assay",[9],50 µM
same,Potency ratio vs native HAKRRLIF,[9],38.5 ratio
PAKRRLFG-NH2,"IC50, kinase assay",[2],6.7 µM
"RKLIF (dimethyllysine at position 2 (lysine with the epsilon amino group methylated), also called SCCP 5918) [R(dimethyllys)LIF]",IC50,[6],5.4 µM
same,IC50,[7],72.2 µM
SAKRNLFGM-NH2,"IC50, kinase assay",[2],146 µM
"RRLNF (pfF at position 5 = p-fluorophenylalanine; C-terminal amide, also called SCCP 540) [RRLNpfF]",IC50,[7],8 µM
"{Pyrazole N‑cap (R1 OCH3, R2 H, R3 H, R4 CH3, W N, X N, Y C, Z C)}-RLIF (reading uncertain; also: cap structure given only by scaffold parameters) [SCCP 5766 (Pyrazole N-cap ligated to RLIF)]",IC50,[4],64.1 µM
"{benzoic acid Scaffold III (R1 H, R2 CHEM-US-00025 C6H13NO)}-RLIF (not fully specified (C-terminus); reading uncertain) [SCCP 5851 (benzoic acid N-cap-RLIF)]",fold enhancement of activity vs unsubstituted benzoic acid,[3],26 fold
HAKRRLIA (HELM PEPTIDE1{H.A.K.R.R.L.I.[O=C([C@H](Cc1ccsc1)N[*:1])[*:2]].[am]}$$$$V2.0; N-terminus assumed; SMILES CC[C@H](C)[C@H](NC(=O)[C@H](CC(C)C)NC(=O)[C@H](CCCNC(=N)N)NC(=O)[C@H](CCCNC(=N)N)NC(=O)[C@H](CCCCN)NC(=O)[C@H](C)NC(=O)[C@@H](N)Cc1c[nH]cn1)C(=O)N[C@@H](Cc1ccsc1)C(N)=O) [HAKRRLIX3],"IC50, kinase assay",[1],25 µM
"SAKRRLAG (HELM PEPTIDE1{S.A.K.R.R.[CC(C)C[C@@H](CC(=O)[*:2])N[*:1]].[O=C([C@H](Cc1ccsc1)N[*:1])[*:2]].G}$$$$V2.0; N-terminus assumed; SMILES CC(C)C[C@@H](CC(=O)N[C@@H](Cc1ccsc1)C(=O)NCC(=O)O)NC(=O)[C@H](CCCNC(=N)N)NC(=O)[C@H](CCCNC(=N)N)NC(=O)[C@H](CCCCN)NC(=O)[C@H](C)NC(=O)[C@@H](N)CO, C-terminal free acid (-OH); also called SCCP 5813) [SAKRR{bLeu}3TAG-OH]",IC50,[6],0.31 µM
Arg-Arg-[β3hL]-{3‑phenoxybenzylamide} [Arg-Arg-β-homoleucyl-3-phenoxybenzylamid],"IC50, kinase assay",[2],60 µM
same,Potency ratio,[2],20.7 ratio
same,"IC50, kinase assay",[9],> 100 µM
HAKRRLI[Ala(2-furyl)]-NH2 [HAKRRLIX1],"IC50, kinase assay",[10],1.3 µM
same,"IC50, kinase assay",[1],6.1 µM
"{Triazole N‑cap (R1 H, R2 H, R3 H, R4 H, W N, X N, Y N, Z C)}-RLIF (also: cap structure given only by scaffold parameters) [SCCP 5843 (Triazole N-cap ligated to RLIF)]",IC50,[4],16.2 µM
same,IC50,[5],48.7 µM
HAKRRLIA (HELM PEPTIDE1{H.A.K.R.R.L.I.[O=C([C@H](CC1CCCC1)N[*:1])[*:2]].[am]}$$$$V2.0; N-terminus assumed; SMILES CC[C@H](C)[C@H](NC(=O)[C@H](CC(C)C)NC(=O)[C@H](CCCNC(=N)N)NC(=O)[C@H](CCCNC(=N)N)NC(=O)[C@H](CCCCN)NC(=O)[C@H](C)NC(=O)[C@@H](N)Cc1c[nH]cn1)C(=O)N[C@@H](CC1CCCC1)C(N)=O) [HAKRRLIX5],"IC50, kinase assay",[11],90 µM
same,"IC50, kinase assay",[1],20 µM
"{Pyrazole N‑cap (R1 H, R2 H, R3 H, R4 CH3, W N, X N, Y C, Z C)}-RLIF (reading uncertain; also: cap structure given only by scaffold parameters) [SCCP 5762 (Pyrazole N-cap ligated to RLIF)]",IC50,[5],53.8 µM
"{Pyrazole N‑cap (R1 Cl, R2 H, R3 H, R4 CH3, W N, X N, Y C, Z C)}-RLIF (reading uncertain; also: cap structure given only by scaffold parameters) [SCCP 5764 (Pyrazole N-cap ligated to RLIF)]",IC50,[4],11.9 µM
same,IC50,[5],45 µM
